Measured values published in the supplement of paper PMC9112550, “Optimization of the antimicrobial peptide Bac7 by deep mutational scanning” (BMC Biology, 2022).

These sequences were tested on Escherichia coli TOP10 (assay: shrunken log2 fold change of peptide-encoding DNA abundance (4.5 h post-induction vs induction); higher = less antimicrobial activity (less host growth inhibition)). Conditions: time post-induction: 4.5 h; library: site-saturation at positions 5, 18, 19, 20.
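Also: peptides expressed intracellularly from a pBAD plasmid library in pooled LB shake-flask culture, induced with 0.3% L-arabinose, DNA abundance read by NGS, three biological replicates, DESeq2 with apeglm shrinkage.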

Sequence | shrunken log2 fold change
RRIRWRPPRLPRPRPRPIRPPRP | -0.116
RRIRKRPPRLPRPRPRPHQMPRP | 0.0681
RRIRFRPPRLPRPRPRPCINPRP | -0.0523
RRIRFRPPRLPRPRPRPPHYPRP | -0.124
RRIRMRPPRLPRPRPRPESKPRP | 2.93
RRIRPRPPRLPRPRPRPFGFPRP | 0.0716
RRIRTRPPRLPRPRPRPDMPPRP | -0.064
RRIRHRPPRLPRPRPRPHKEPRP | -0.00832
RRIRPRPPRLPRPRPRPCNPPRP | -0.0662
RRIRMRPPRLPRPRPRPGQWPRP | 0.204
RRIRRRPPRLPRPRPRPAKGPRP | -0.0594
RRIRERPPRLPRPRPRPIQHPRP | -0.529
RRIRARPPRLPRPRPRPPNAPRP | 0.825
RRIRSRPPRLPRPRPRPSLCPRP | -0.0295
RRIRQRPPRLPRPRPRPQWTPRP | -0.126
RRIRTRPPRLPRPRPRPLMQPRP | 0.19
RRIRRRPPRLPRPRPRPLDHPRP | -0.357
RRIRIRPPRLPRPRPRPVIGPRP | -0.727
RRIRHRPPRLPRPRPRPDEVPRP | -0.00134
RRIRRRPPRLPRPRPRPVSDPRP | 0.444
RRIRGRPPRLPRPRPRPPCWPRP | 1.09
RRIRYRPPRLPRPRPRPMRAPRP | 0.605
RRIRIRPPRLPRPRPRPVSMPRP | 0.0888

Sequence | shrunken log2 fold change
RRIRIRPPRLPRPRPRPWYVPRP | -0.247
RRIRDRPPRLPRPRPRPGLAPRP | 0.565
RRIRPRPPRLPRPRPRPRESPRP | 0.0752
RRIRMRPPRLPRPRPRPFINPRP | -0.278
RRIRVRPPRLPRPRPRPFDHPRP | -0.557
RRIRFRPPRLPRPRPRPPPSPRP | 1.35
RRIRVRPPRLPRPRPRPEHSPRP | 0.115
RRIRGRPPRLPRPRPRPPQDPRP | 0.781
RRIRARPPRLPRPRPRPWWRPRP | 0.0229
RRIRLRPPRLPRPRPRPQMGPRP | -0.0175
RRIRDRPPRLPRPRPRPNMRPRP | -0.00803
RRIRARPPRLPRPRPRPWAKPRP | 0.334
RRIRVRPPRLPRPRPRPKECPRP | -0.0265
RRIRHRPPRLPRPRPRPSTLPRP | -0.0931
RRIRTRPPRLPRPRPRPQKFPRP | -0.632
RRIRMRPPRLPRPRPRPHIEPRP | -0.0375
RRIRWRPPRLPRPRPRPCHWPRP | -0.116
RRIRSRPPRLPRPRPRPYQEPRP | -0.157
RRIRWRPPRLPRPRPRPTNEPRP | 0.225
RRIRIRPPRLPRPRPRPTWKPRP | -0.0541
RRIRARPPRLPRPRPRPETMPRP | 0.0902
RRIRPRPPRLPRPRPRPDQFPRP | -0.0233
RRIRHRPPRLPRPRPRPLCEPRP | 0.197

Sequence | shrunken log2 fold change
RRIRVRPPRLPRPRPRPHKCPRP | -0.274
RRIRLRPPRLPRPRPRPWHIPRP | 0.0292
RRIRERPPRLPRPRPRPHHMPRP | -0.381
RRIRGRPPRLPRPRPRPCVHPRP | 0.107
RRIRCRPPRLPRPRPRPFDLPRP | -0.0696
RRIRVRPPRLPRPRPRPLAGPRP | 0.334
RRIRQRPPRLPRPRPRPTCQPRP | -0.125
RRIRRRPPRLPRPRPRPVIVPRP | -0.114
RRIRQRPPRLPRPRPRPYYIPRP | -0.657
RRIRVRPPRLPRPRPRPMWCPRP | -0.139
RRIRFRPPRLPRPRPRPKDTPRP | 0.0365
RRIRRRPPRLPRPRPRPDQQPRP | 0.0145
RRIRHRPPRLPRPRPRPRLLPRP | -0.113
RRIRFRPPRLPRPRPRPSSGPRP | -0.0411
RRIRLRPPRLPRPRPRPANCPRP | -0.291
RRIRTRPPRLPRPRPRPKQAPRP | 0.0749
RRIRERPPRLPRPRPRPIRSPRP | -0.112
RRIRDRPPRLPRPRPRPHLQPRP | 0.157
RRIRVRPPRLPRPRPRPEIWPRP | 0.223
RRIRGRPPRLPRPRPRPIQEPRP | 0.416
RRIRYRPPRLPRPRPRPIFDPRP | -0.737
RRIRCRPPRLPRPRPRPKDMPRP | -0.531
RRIRIRPPRLPRPRPRPSHHPRP | -0.941

Sequence | shrunken log2 fold change
RRIRRRPPRLPRPRPRPKIPPRP | 0.0427
RRIRLRPPRLPRPRPRPQERPRP | -0.839
RRIRERPPRLPRPRPRPSCWPRP | 0.101
RRIRFRPPRLPRPRPRPWWSPRP | -0.18
RRIRSRPPRLPRPRPRPYTSPRP | -0.14
RRIRNRPPRLPRPRPRPSGQPRP | -0.188
RRIRKRPPRLPRPRPRPYWFPRP | 0.00102
RRIRHRPPRLPRPRPRPVPLPRP | -0.396
RRIRIRPPRLPRPRPRPMDKPRP | -0.448
RRIRTRPPRLPRPRPRPFQHPRP | -0.214
RRIRRRPPRLPRPRPRPAIQPRP | 0.561
RRIRRRPPRLPRPRPRPQTTPRP | 0.137
RRIRGRPPRLPRPRPRPAGMPRP | 0.737
RRIRPRPPRLPRPRPRPPTKPRP | 0.268
RRIRYRPPRLPRPRPRPSWMPRP | -0.534
RRIRVRPPRLPRPRPRPWGAPRP | 0.21
RRIRQRPPRLPRPRPRPYWNPRP | -1.21
RRIRCRPPRLPRPRPRPLYDPRP | -0.312
RRIRARPPRLPRPRPRPQWWPRP | 0.464
RRIRIRPPRLPRPRPRPVWYPRP | -0.84
RRIRMRPPRLPRPRPRPPKRPRP | 1.05
RRIRCRPPRLPRPRPRPFLNPRP | -0.602
